Experiment: soluble on expression in E. coli; label from the status in PepcDB or PDB records

Sequence	soluble on expression in E. coli
MIFENRLALSAMAGVNNAEFCRKQKASLVILGGFNADRRALEAAEKAVKRGRKEFLFGIDGIEGEIKKLGRRKFAVNVRSSSLEGYLNVAELVAEFEGIIEINAHCRQPEFVEIGCGEWLLFNHERLVEIVSKTSRIAPTFVKIRGGHKLDYEKIARKLFDAGCLAIHVDAMIPGGGCDFSLIERISRIGNVIGNNSFVDIESGERIIMAGAKMASAARAVLRDENFFEKMLRSPLLSQPVELSCGRFRLEHHHHHH	soluble
MIFRAKANKALDRAEDPRETLDYSYQKQLELLQKVRRGVADVATSRKRLELQLNQLQSQSGKLEDQGRKALALGREDLAREALSRRAALQQQVTDLETQHATLQGEEEKLTLAAQRLQAKVDAFRTKKETIKATYTAAQAQTRIGEAFSGISEEMGDVGLAIQRAEDKTAQLQARAGAIDELLASGALDDQSGMHKDDIQAELDRLSGGTDVELELQRMKAELAGGSTSDRQAIEGGQGQGEASSQSQQPQDTPRFDKQLEHHHHHH	not soluble
MIGGRLKSLRGKRTQEEIASHIGVSRARYSHYENGRSEPDYDTLQKLADYFQVTTDYLLTGKDKKSDDDMFSDPDLQLAYRDMQDFSPESKQQAIEFINYLKEKEKNRKPKNK	not soluble
MIGILKKVFDVNQRQIKRMQKTVEQIDALESSIKPLTDEQLKGKTLEFKERLTKGETVDDLLPEAFAVVREAATRVLGMRPYGVQLMGGIALHEGNISEMKTGEGKTLTSTLPVYLNALTGKGVHVVTVNEYLAQRDANEMGQLHEFLGLTVGINLNSMSREEKQEAYAADITYSTNNELGFDYLRDNMVLYKEQCVQRPLHFAIIDEVDSILVDEARTPLIISGQAQKSTELYMFANAFVRTLENEKDYSFDVKTKNVMLTEDGITKAEKAFHIENLFDLKHVALLHHINQALRAHVVMHRDTDYVVQEGEIVIVDQFTGRLMKGRRYSEGLHQAIEAKEGVEIQNESMTLATITFQNYFRMYEKLSGMTGTAKTEEEEFRNIYNMNVIVIPTNKPIIRDDRADLIFKSMKGKFNAVVEDIVNRHKQGQPVLVGTVAIETSELISKMLTRKGVRHNILNAKNHAREADIIAEAGMKGAVTIATNMAGRGTDIKLGDDIKNIGLAVIGTERHESRRIDNQLRGRAGRQGDPGVTQFYLSMEDELMRRFGSDNMKAMMDRLGMDDSQPIESKMVSRAVESAQKRVEGNNYDARKQLLQYDDVLRQQREVIYKQRQEVMESENLRGIIEGMMKSTVERAVALHTQEEIEEDWNIKGLVDYLNTNLLQEGDVKEEELRRLAPEEMSEPIIAKLIERYNDKEKLMPEEQMREFEKVVVFRVVDTKWTEHIDAMDHLREGIHLRAYGQIDPLREYQMEGFAMFESMIASIEEEISRYIMKAEIEQNLERQEVVQGEAVHPSSDGEEAKKKPVVKGDQVGRNDLCKCGSGKKYKNCCGIGK	not soluble
MIGVVGGGIAGLSAAYRLQQRGHEVRVFEASEDLGGLAATYETAGDPIEKFYHHLSKSEETIVDLAEELGLGDAVEWHIGENAYYVDGVVHPMDKPWEILSYPHLSLYDTFRLGMLVLDIDVRGGVPSFDTYERLEDFEGVPIEEFVVDHTTRGVYENFFEPLLDAKFGDRKDDVSAAWLLGRVKFRGERDILNGEILGYFDGGFGRLLDALVDAVGRDNIATGTRVSDIDTSGGTVSSLTATDGTETTVHDVDSVVVATMPNVLEALTGYTCDIDFQGTVCSVISMDEPLLDTYWLNIADDAPFGALIEHTNFVSAERYGGEHLLYVARYIQDESEAIWQQSDDEVAETWLQGIESLFPDFDRDAVNWIRTGRNPRTAPVYERGYLDMVIPYDLSDAVADGLYYAGMASRAQYPERSLNGGIVAGFECADRIARDPSAATKTDESPLSEAQRLEHHHHHH	not soluble
MIHKRTNEGDLVIESFADKRCKDLLEGNPPKGFPTTLVRIVQRKLFMLDKAVDLKDLRSPPGNRLEALKGERKGQYSIRINDQFRICFEWRSNGAYEVEIVDYH	not soluble
MIHSNEPLPYAIEYAKSGRSTCKTCKKNIALDQLRMSMNRPSTFFDGNMDSWFHYNCFWNKMIRGRDDINISSIRGVDWLRWEDQEKLRQEIQHFKTASPPTLTPLFSTTTVILSTIKTEKSLSNRGKCGKCGQNFERGEIKAHNKGKANHFECFLQEFDKISGTVEDIPGWADYEANFKIKATGEYVEALAAKGGSTEPATPASASPTPPEAETPVLSAEGSPESSNKRPASAEIIEIDGEGNPDENDFAKKRRMKKEARLMEVQKKRMKKQSDLLWEYRQIFERMPYTDNISILRENEQDIPEGHDRTAQDVFHEKTKNDWIYRKHFRKMPGMFSYVETDYSEFVGTNNGHKKKITPGSKITPGSKTLLPKSVKEVVMSIFDVENMKSALKSFEIDVNKMPLGRLSHNQINLAFEVLNDISDLLVKLPIDASKILDFSNKFYTIIPHNFGMRVPEPIDSFHKIKEKNNMLNALLDIKFAYDQISGGDVPASTSLSIDPVDINYRKLKCIMEPLQQGCDDWNMIHQYLKNTHGATHDLKVELIDILKVNRDNESSKFKRHIGNRRLLWHGSGKMNFAGILGQGLRIAPPEAPVSGYMFGKGVYFADMFSKSFFYCRANAKEEAYLLLCDVALGNVQQLMASKNVSRQTLPAGFQSVQGVGRQCPREIGSYKNPDGYTVPLGLTYMQLQGKQNVDYHLLYNEFIVYDVDQIQLKYLVRVKMHHARHL	not soluble
MIHSSVKRWGNSPAVRIPATLMQALNLNIDDEVKIDLVDGKLIIEPVRKEPVFTLAELVNDITPENLHENIDWGEPKDKEVW	soluble
MIIEFEEKLLDLIDAQVVNASSDELFAGGYLRGHISLSAAQCEEEGITELDVLKQRIEQSLEAARSELSPADRAIVAELWQQLAAQA	not soluble
MIIEKKIKNYTVFVKKDGEKYIEIFKDFLSYNHQVIKVFRNIEDTKVVLINTDYGKYILKVFSPKVKNTERFFKSLVKGDYYEKLFHQTDRVRREGFAALNDFYLLAEIKTLRYVKTYVMIIEYIEGIELVDMPEISDEVRGKIKQSIYSLHQHGMVSGDPHKGNFILQGNEIRIIDLSGKRPSRQRKAKDRIDLERHYGIKNNVRDIGFYLLIYKKKLRNFLRRIKGKEKRLEHHHHHH	not soluble
MIIFSGGTGTPKLLDGLKEILPEEELTVVVNTAEDLWVSGNLISPDLDTVLYLFSDQIDRKRWWGIENDTFGTYERMKELGIEEGLKLGDRDRATHIIRSNIIRDGASLTDSTVKLSSLFGIKANILPMSDDPVSTYIETAEGIMHFQDFWIGKRGEPDVRGVDIRGVSEASISPKVLEAFEKEENILIGPSNPITSIGPIISLPGMRELLKKKKVVAVSPIIGNAPVSGPAGKLMPACGIEVSSMGVAEYYQDFLDVFVFDERDRADEFAFERLGCHASRADTLMTSTEKSKELAEIVVQAFLEHHHHHH	soluble
MIIKRNDMAPSVKAGDAILFYRLSQTYKVEEAVVYEDSKTSITKVGRIIAQAGDEVDLTEQGELKINGHIQNEGLTFIKSREANYPYRIADNSYLILNDYYSQESENYLQDAIAKDAIKGTINTLIRLRNH	not soluble
MIILQANKIERSFAGEVLFDNINLQVDERDRIALVGKNGAGKSTLLKILVGEEEPTSGEINKKKDISLSYLAQDSRFESENTIYDEMLHVFNDLRRTERQLRQMELEMGEKSGEDLDKLMSDYDRLSENFRQAGGFTYEADIRAILNGFKFDESMWQMKIAELSGGQNTRLALAKMLLEKPNLLVLDEPTNHLDIETIAWLENYLVNYSGALIIVSHDRYFLDKVATITLDLTKHSLDRYVGNYSRFVELKEQKLVTEAKNYEKQQKEIAALEDFVNRNLVRASTTKRAQSRRKQLEKMERLDKPEAGKKSANMTFQSEKTSGNVVLTVENAAVGYDGEVLSQPINLDLRKMNAVAIVGPNGIGKSTFIKSIVDQIPFIKGEKRFGANVEVGYYDQTQSKLTPSNTVLDELWNDFKLTPEVEIRNRLGAFLFSGDDVKKSVGMLSGGEKARLLLAKLSMENNNFLILDEPTNHLDIDSKEVLENALIDFDGTLLFVSHDRYFINRVATHVLELSENGSTLYLGDYDYYVEKKATAEMSQTEEASTSNQAKEASPVNDYQAQKESQKEVRKLMRQIESLEAEIEELESQSQAISEQMLETNDADKLMELQAELDKISHRQEEAMLEWEELSEQV	not soluble
MIILYDFLQESSVMPRSKNDSKLKKKSALQSKFKEQQLNHGSKEHKSKFKFSQRKAKKKGPGMTHLPGNIYTLFTPVNGPKSKDEWIDTSKIMLDLHIDNMSSSDYIPSAIDRTDLVMVQSVHLLRKTGGRGLFAREDIPKGTCIGIYTGEVYSEQEFEQYLKEHVGSDKSYAMYVGGRVIDAARKGNLTRYINFSDSQDNAEFVETTLNRKKVAKVITTKNIKAGQQLLINYNTYEEQASRYYYFLNPGDGWLSAQEFYQTYQSQYRLEQMPYNLEGFDLKAGDRVLMTQIGRIILANYSLAKEQELNASDIDLPFLKVGSDEKILDFDEADTFTPLMAACYLGQVENVKWLIEHGANIDQQQSHSGHCPLSLTLKGYSLAKDTQKYIDIIQLLIKNQVNLLVHDRSDKTFLHNAALVLNNLDFQSVVKFLIGQNPIDINEYFTYIDENDFDIVMHCYNNKLFDKALVLLAFYPDYFKRNYMSDNEGHNQFNINAFRKAIKDFNSNERSILLMQLRESGLHLPEDLLEQLGIMDSSITLESKFF	not soluble
MIIMGLFDEVVGAFLKGDAGKYQAILSWVEEQGGIQVLLEKLQSGGLGAILSTWLSNQQGNQSVSGEQLESALGTNAVSDLGQKLGVDTSTASSLLAEQLPKIIDALSPQGEVSPQANNDLLSAGMELLKGKLFR	not soluble
MIINITILEDNESDFITLSDSIKKWAANTGILINIIWLNSYKKFIKSLPTLKCDLFFSDIELNCNNSFTGIDACKQLRESGYTGIIIFLTAFKEYVFDGYDVQAFNYLLKPINYGTINNCLDKFIHLFSREFYYLEHHHHHH	soluble
MIIVHHLNNSRSQRILWLLEELGLPYEIKRYQRDPKTNLAPPELKAIHPLGKSPVIEDGPHVVIESGAIVDYLIRRHGDGRLQPDPASATYDEYVQWLHFAEGSAILPLMLNLYVGRLGDAGAPLHPRIHSELANYLGYLNEALGLTPYLLGDELSGADIQMSFIGEFAKMQGMLQPHPNLAAWVQRCQERPAYRQALEQGGEYSFAK	not soluble
MIIVRLCGGLGNQMFQYAAGLAAAHRIGSEVKFDTHWFDATCLHQGLELRRVFGLELPEPSSKDLRKVLGACVHPAVRRLLSRRLLRALRPKSLVIQPHFHYWTGFEHLTDNVYLEGYWQSERYFSNIADIIRQQFRFVEPLDPHNAALMDEMQSGVSVSLHIRRGDYFNNPQMRRVHGVDLSEYYPAAVATMIEKTNAERFYVFSDDPQWVLEHLKLPVSYTVVDHNRGAASYRDMQLMSACRHHIIANSTFSWWGAWLNPRPDKVVIAPRHWFNVDVFDTRDLYCPEWIVLLEHHHHHH	soluble
MIKAIIFDVDETLVYYEGYSLREWYEKVGLPAMKELGVIVDWEIFRKMARGELPRSYVEKFQINHVKFWKALDEANRKYREELLKEGKVHTFKDVEALKEIKNLGIKLAAVSNASQDNTELVLRAFDLLKYFDVVYGKDYTYLDGVKPNPYLINKALKALNVEPKEAILVGDSELDIIAGKRAKLRVVQIVREKRVEGADVYINSLWELVDKLKTGEL	soluble
MIKESIILKNLEVPTGNICVIKGDKGKLEFLSLGDYGKEVNVKADFLGITRDLEGVPNGKVQPLTKKWVVTMSTQYGCDSGCKFCDVPKVGKGVNVTYNDLKTQLEQALNLHPEIDRTERLNIHYARMGEPSWNNDVLDFTRNLKNIVKPYIGESLIHPVFTTMCPNKNKFLAHRINEWVDIKNNLFQGDAGLQLSINSTNENQRRDMFRGNALTLNEISSIGNDLPMPKGRKYCLNFALADEYEVDAKVLKKLFDPSKFMVKITPLHKTVSSIENDIKTTKGYVSYTPYKDIENDLKKMGFDVLVFVPSYDEDLGRITCGNVILSGSLPKCKYKINLEHHHHHH	not soluble
